This is an account of results in patent US20260108556A1 (ABELZETA, published 2026).

One experiment concerns the target T1, human CD20 (human, UniProt P11836 1-297).
T1 construct: whole, on cells; also called B1; MS4A
T1 sequence (looked up): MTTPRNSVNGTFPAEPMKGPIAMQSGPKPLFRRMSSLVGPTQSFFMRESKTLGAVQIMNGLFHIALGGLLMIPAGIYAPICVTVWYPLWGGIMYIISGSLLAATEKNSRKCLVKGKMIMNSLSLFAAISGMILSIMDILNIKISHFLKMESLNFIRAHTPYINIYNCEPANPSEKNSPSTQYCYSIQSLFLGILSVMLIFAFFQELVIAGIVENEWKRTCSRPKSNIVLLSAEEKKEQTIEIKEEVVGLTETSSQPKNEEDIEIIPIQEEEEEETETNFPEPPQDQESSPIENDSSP
The experiment is described as follows: flow cytometry, HEK293T membrane protein array. The source says: (§1) In the membrane protein array, genetic engineering methods are used to construct the full-length cDNA sequences of human membrane proteins into expression vectors, which are then transiently transfected into HEK293T cells and arranged into an array by using microfluidic technology or chip printing technology. It is a high-throughput screening technology for studying the interaction between test substances and membrane proteins.
(§2) A chimeric rabbit monoclonal antibody, C-CAR168 scFv-RabFc, was generated by linking the anti-CD20 scFv (e.g., derived from the Ofatumumab mAb) and the anti-BCMA scFv (e.g., derived from the BCMA-20 mAb) in frame with a rabbit IgG Fc region. The chimeric antibody was added at a concentration of 20 μg/mL to the HEK293T cell array transiently transfected with 5220 membrane proteins. […] The average fluorescence intensity of its binding to CD20 and BCMA in flow cytometry was about 60-fold and 110-fold of that of the negative control group, respectively (FIG. 8B). […] This is mainly due to the binding between FCGR1A and the rabbit-derived Fc of the recombinant protein; so there is no relevant risk in clinical applications.

Another experiment concerns the target T2, human BCMA (human, UniProt Q02223 1-184).
T2 construct: whole, on cells; also called B-cell maturation antigen; TNFRSF17
T2 sequence (looked up): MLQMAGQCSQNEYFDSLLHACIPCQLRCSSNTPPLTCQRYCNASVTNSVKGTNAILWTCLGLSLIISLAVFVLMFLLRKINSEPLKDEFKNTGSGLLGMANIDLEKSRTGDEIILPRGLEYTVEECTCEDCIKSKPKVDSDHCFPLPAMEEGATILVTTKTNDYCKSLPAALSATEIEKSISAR
Description: flow cytometry, HEK293T membrane protein array.
Text: as §1, §2

The target in the next experiment is T3, CLEC2B (human, UniProt Q92478 1-149).
T3 construct: whole, on cells
T3 sequence (looked up): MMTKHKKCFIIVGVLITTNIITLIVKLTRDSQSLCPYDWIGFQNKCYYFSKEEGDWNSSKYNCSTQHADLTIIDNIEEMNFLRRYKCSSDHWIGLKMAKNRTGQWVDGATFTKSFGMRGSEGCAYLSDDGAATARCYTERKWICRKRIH
The experiment is described as follows: flow cytometry, HEK293T membrane protein array, 20 µg/mL and 5 µg/mL.
Text: as §1, §2

The target in the next experiment is T4, MPZ (human, UniProt P25189 30-248).
T4 construct: whole, on cells
T4 sequence (looked up): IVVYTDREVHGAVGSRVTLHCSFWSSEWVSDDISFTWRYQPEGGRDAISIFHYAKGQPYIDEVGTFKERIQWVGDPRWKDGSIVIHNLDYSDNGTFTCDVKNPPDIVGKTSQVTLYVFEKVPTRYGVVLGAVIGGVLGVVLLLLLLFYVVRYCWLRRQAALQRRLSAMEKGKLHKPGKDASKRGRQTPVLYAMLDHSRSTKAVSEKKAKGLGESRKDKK
The description is as above.
Text: as §1, §2

For another experiment, the target named is T5, MC2R (human, UniProt Q01718 1-297).
T5 construct: whole, on cells
T5 sequence (Q01718 whole entry): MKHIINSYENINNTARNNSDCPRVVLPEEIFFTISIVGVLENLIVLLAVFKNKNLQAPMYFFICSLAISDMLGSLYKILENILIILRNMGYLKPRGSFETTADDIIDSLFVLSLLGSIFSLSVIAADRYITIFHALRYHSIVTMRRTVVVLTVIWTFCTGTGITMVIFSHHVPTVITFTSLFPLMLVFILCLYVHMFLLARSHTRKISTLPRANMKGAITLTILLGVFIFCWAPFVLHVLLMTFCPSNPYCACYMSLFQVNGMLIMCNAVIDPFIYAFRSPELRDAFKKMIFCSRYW
The description is as above.
Text: as §1, §2

The target of a further experiment is FCGR1A (human) (UniProt P12314). Description: flow cytometry, HEK293T membrane protein array.
Chain of FCGR1A (human) (P12314 16-374): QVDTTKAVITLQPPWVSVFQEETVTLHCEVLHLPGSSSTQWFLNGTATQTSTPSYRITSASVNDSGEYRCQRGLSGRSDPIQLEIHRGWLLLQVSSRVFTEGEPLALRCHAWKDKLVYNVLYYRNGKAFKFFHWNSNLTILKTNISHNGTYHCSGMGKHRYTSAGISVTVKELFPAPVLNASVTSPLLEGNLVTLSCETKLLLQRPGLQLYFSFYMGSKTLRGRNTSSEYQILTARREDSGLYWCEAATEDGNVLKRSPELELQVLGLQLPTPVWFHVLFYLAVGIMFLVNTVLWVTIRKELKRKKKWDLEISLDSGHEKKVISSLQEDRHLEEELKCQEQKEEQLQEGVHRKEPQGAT
Another experiment addresses F11R (human) (UniProt Q9Y624). The experiment is described as follows: flow cytometry, HEK293T membrane protein array, 20 µg/mL and 5 µg/mL.

A value given as a limit tells only on which side of the number the result lay.

Chain of F11R (human) (Q9Y624 28-299, stated change not applied): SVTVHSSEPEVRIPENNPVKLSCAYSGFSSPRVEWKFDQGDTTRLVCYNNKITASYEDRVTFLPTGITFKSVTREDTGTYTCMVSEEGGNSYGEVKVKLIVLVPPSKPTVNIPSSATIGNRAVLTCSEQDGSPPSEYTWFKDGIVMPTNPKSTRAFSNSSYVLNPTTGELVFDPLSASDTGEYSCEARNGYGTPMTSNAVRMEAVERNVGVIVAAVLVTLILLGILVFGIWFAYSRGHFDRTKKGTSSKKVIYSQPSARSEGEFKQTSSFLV

B1: C-CAR168 scFv-RabFc (Fc fusion)
chain: EIVLTQSPATLSLSPGERATLSCRASQSVSSYLAWYQQKPGQAPRLLIYDASNRATGIPARFSGSGSGTDFTLTISSLEPEDFAVYYCQQRSNWPITFGQGTRLEIKGSTSGGGSGGGSGGGGSSEVQLVESGGGLVQPGRSLRLSCAASGFTFNDYAMHWVRQAPGKGLEWVSTISWNSGSIGYADSVKGRFTISRDNAKKSLYLQMNSLRAEDTALYYCAKDIQYGNYYYGMDVWGQGTTVTVSSGGGGSDIQMTQSPSSLSASVGDRVTITCRASQGISNYLNWYQQKPGKAPKPLIYYTSNLQSGVPSRFSGSGSGTDYTLTISSLQPEDFATYYCMGQTISSYTFGQGTKLEIKGGGGSGGGGSGGGGSEVQLVESGGGLVQPGGSLRLSCAASGFTFSNFDMAWVRQAPGKGLVWVSSITTGADHAIYADSVKGRFTISRDNAKNTLYLQMNSLRAEDTAVYYCVRHGYYDGYHLFDYWGQGTLVTVSS
notes: also called chimeric rabbit monoclonal antibody; not shown: rabbit IgG Fc region
As to B1, the “average fluorescence intensity, fold of the negative control group” value with human CD20 is roughly 60 fold; with human BCMA it was roughly 110 fold; with CLEC2B, no more than 2 fold; with MPZ, no more than 2 fold; with MC2R, no more than 2 fold; with FCGR1A (human), 2.5 fold. Besides, the average fluorescence intensity, fold of the negative control group with F11R (human) was less than 2 fold.
